For assay [1], the target named is T1, recombinant TST-Galphai1 protein bound to GDP (human, UniProt P63096 1-354, Loaded non-covalently with GDP (10 uM). The N-terminal TwinStreptag and TEV linker are not in the letters.).
T1 construct: Same polypeptide as m14 and m16; here loaded with an excess of GDP (10 uM); Produced in Sf9 insect cells; also called Galphai1 protein loaded with GDP
Nature of the assay: TR-FRET (HTRF) saturation binding; VH-d2 titrated on 1 nM TST-Galphai1 with 10 uM GDP, anti-TST-Lumi4-Tb donor; mean Kd. Here is the method:
(§1) The TR-FRET (HTRF) test made it possible to determine the affinity (Kd) of the various antibodies for the Galphai1 protein; FIG. 2 illustrates the principle of this test. A fixed concentration (1 nM) of the recombinant Galphai1 protein purified and tagged with TST (TST-Galphai1 protein) was placed in the presence of an excess of nucleotide (GDP or GTPgS) (10 μM), of a fixed concentration (0.5 nM) of anti-TST antibody labeled with the donor Lumi4®-Tb (anti-TST antibody-Lumi4®-Tb) and of increasing concentrations of VH-type single-domain antibodies labeled with the acceptor d2 (anti-Galphai VH antibody-d2). The total HTRF signal was then obtained.
(§2) The specific HTRF signal of the interaction between the antibody and the Galphai1 protein was then calculated by subtracting the nonspecific signal from the total signal. The data of the specific HTRF signal were then analyzed on GraphPad Prism7 software using a “one site specific binding” fit. The dissociation constant (Kd) of the antibody for the Galphai1 protein was then determined. The results which were obtained with the antibodies which bind to the G protein alpha bound to GTP gamma S and with the antibodies which bind to the G protein alpha bound to GDP are shown in Tables 1 and 2 below.
In general terms: Time-resolved FRET reads energy transfer from a long-lived donor to a nearby acceptor.

For assay [2], the target named is T2, empty G alphai1 protein (recombinant TST-Galphai1 protein, no nucleotide) (human, UniProt P63096 1-354).
T2 construct: Same polypeptide as m14 and m15; also called empty G protein alpha; empty form of the G protein alpha; not shown: N-terminal TwinStreptag (TST) (IBA) tag and TEV linker
In words: TR-FRET (HTRF) saturation binding; VH-d2 titrated on TST-Galphai1, empty form; mean Kd.

The target in assay [3] is T3, recombinant TST-Galphai1 protein bound to GTPgammaS (human, UniProt P63096 1-354, Loaded non-covalently with GTPgammaS (10 uM). The N-terminal TwinStreptag and TEV linker are not in the letters.).
T3 construct: Same polypeptide as m15 and m16; here loaded with an excess of GTPgS (10 uM); Produced in Sf9 insect cells; also called Galphai1 protein loaded with GTPgS
In words: TR-FRET (HTRF) saturation binding; 6HIS-tagged VH-HcAb titrated on 1 nM TST-Galphai1 with 10 uM GTPgS, anti-TST-Lumi4-Tb donor and anti-6HIS-d2 acceptor; mean Kd. The method, then:
(§3) FIG. 12 illustrates the principle of the TR-FRET (HTRF) assay which was carried out to determine the affinity (Kd) of the various VH-HcAbs for the Galphai1 protein. A fixed concentration (1 nM) of the recombinant Galphai1 protein purified and tagged with TST (TST-Galphai1 protein) is placed in the presence of an excess of nucleotide (GDP or GTPgS) (10 μM), of a fixed concentration (0.5 nM) of anti-TST antibody labeled with the donor Lumi4®-Tb (anti-Tag Ab-Donor), of a fixed concentration (50 nM) of anti-6HIS antibody labeled with the acceptor d2 (anti-6HIS-acceptor antibody, Cisbio Bioassays #61HISDLF), and of increasing concentrations of a VH-HcAb antibody tagged with 6HIS (6HIS-Fc-sdAb). The total HTRF signal was then obtained.
(§4) The specific HTRF signal of the interaction between the VH-HcAb and the Galphai1 protein was then calculated by subtracting the nonspecific signal from the total signal. The data of the specific HTRF signal were then analyzed on GraphPad Prism7 software using a “one site specific binding” fit. The dissociation constant (Kd) of the VH-HcAb for the Galphai1 protein was then determined.

For assay [4], the target named is T2, empty G alphai1 protein (recombinant …). Nature of the assay: TR-FRET (HTRF) saturation binding; VH-d2 titrated on TST-Galphai1, empty form; mean Kd. The source holds these as a separate data set.
Assay [5] addresses T3, recombinant TST-Galphai1 protein bound …. Nature of the assay: TR-FRET (HTRF) saturation binding; VH-d2 titrated on 1 nM TST-Galphai1 with 10 uM GTPgS, anti-TST-Lumi4-Tb donor; mean Kd. Here is the method:
as §1, §2

The target of assay [6] is T1, recombinant TST-Galphai1 protein bound …. Nature of the assay: TR-FRET (HTRF) saturation binding; 6HIS-tagged VH-HcAb titrated on 1 nM TST-Galphai1 with 10 uM GDP, anti-TST-Lumi4-Tb donor and anti-6HIS-d2 acceptor; mean Kd. The method, then: as §3, §4

Our source for the Kd values is US20210309739A1 (CISCIO BIOASSAYS, published 2021).

Substitutions are numbered along the chain they refer to. Read-outs that look alike come from different tables or passages of the source.

The Kd is the equilibrium constant for the complex coming apart.

T2 sequence (P63096 whole entry): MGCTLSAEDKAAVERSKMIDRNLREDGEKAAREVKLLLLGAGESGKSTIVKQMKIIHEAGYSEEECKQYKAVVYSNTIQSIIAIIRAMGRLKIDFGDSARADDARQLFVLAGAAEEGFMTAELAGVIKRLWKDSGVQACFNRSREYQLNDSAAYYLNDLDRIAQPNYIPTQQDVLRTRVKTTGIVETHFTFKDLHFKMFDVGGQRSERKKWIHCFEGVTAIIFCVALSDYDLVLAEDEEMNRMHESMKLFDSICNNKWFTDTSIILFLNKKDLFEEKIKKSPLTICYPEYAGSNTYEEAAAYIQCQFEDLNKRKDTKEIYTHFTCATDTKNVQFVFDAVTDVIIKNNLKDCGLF
T1 sequence (P63096 whole entry): as above
T3 sequence (P63096 whole entry): as above

B1: VH E2 (VHH)
VHH: EVQLVESGGGLVQPGGSLRLSCIGSGYTFSSYAMAWVRQASGKGPEWVASISSRGITTDYAHSVKGRFTISRDNAKNTLYLHMNNLKPEDTALYYCTRVLWYENGLYSLNDFWGQGTQVTVSS
modifications: labeled with the acceptor fluorescent probe d2 (site not stated)
notes: Made in E. coli; also called anti-Galphai VH antibody-d2
Consider B1, for which the dissociation constant (Kd) in assay [1] came out at 72 nM; in assay [2], 2 nM.

B2: HcAb-B11 (Fc fusion)
heavy (part 1 of 2): EVQLVESGGGLVQPGGSLRLSCAASGFTFNDYWMYWVRQAPGKGLEWVSSINTGGSSTYYSDSVKGRFTTARDNAKNSLYLQLNSLRPEDTAVYYCAKEGPVGPPDYWGQGTQVTVSSAAAEQKLISEEDLNGAAHHHHHHGS
heavy (part 2 of 2): HHHHHH
notes: also called VH-HcAb B11; 6HIS-Fc-sdAb; not shown: CH2 and CH3 domains of a human IgG1
For the molecule B2, in assay [3], the dissociation constant Kd was determined as 1 nM.

B3: VH F4 (VHH)
VHH: EVQLVESGGGLVQPGGSLRLSCAASGFTFSSYYMNWVRQAPGKGLEWVSSIYNGDGDTDYSDSVKGRFTISRDNAKNTVYLEMSDLKVQDTAIYYCNAYDGTLLRDYWGQGTQVTVSS
modifications: labeled with the acceptor fluorescent probe d2 (site not stated)
notes: as for B1
Take B3: the dissociation constant (Kd) was determined as 83 nM in assay [4] and 31 nM in assay [5].

B4: VH B11 (VHH)
VHH: EVQLVESGGGLVQPGGSLRLSCAASGFTFNDYWMYWVRQAPGKGLEWVSSINTGGSSTYYSDSVKGRFTTARDNAKNSLYLQLNSLRPEDTAVYYCAKEGPVGPPDYWGQGTQVTVSS
modifications: labeled with the acceptor fluorescent probe d2 (site not stated)
notes: as for B1
With B4, the Kd in assay [4] came to 17 nM; in assay [5] it was 1 nM.

B5: VH F9 (VHH)
VHH: EVQLVESGGGLVQPGGSLRLSCAASGFTFDDYAMNWVRQAAGKGPEWVASISSRGITTDYAHSVKGRFTVSRDNTKNTLYLQMNSLKPDDAAVYYCATDPSTWYRGTAHWGQGTQVTVSS
modifications: labeled with the acceptor fluorescent probe d2 (site not stated)
notes: as for B1
Turning to B5, in assay [5], the Kd worked out at 32 nM.

B6: VH G6 (VHH)
VHH: B5 VHH with G10D, D30S, D31T, A33R, A41P, P45L, S63P
modifications: labeled with the acceptor fluorescent probe d2 (site not stated)
notes: as for B1
As to B6, the dissociation constant (Kd) in assay [5] turned out to be 95 nM.

B7: HcAb-F9 (Fc fusion)
heavy (part 1 of 2): EVQLVESGGGLVQPGGSLRLSCAASGFTFDDYAMNWVRQAAGKGPEWVASISSRGITTDYAHSVKGRFTVSRDNTKNTLYLQMNSLKPDDAAVYYCATDPSTWYRGTAHWGQGTQVTVSSAAAEQKLISEEDLNGAAHHHHHHGS
heavy (part 2 of 2): HHHHHH
notes: also called VH-HcAb F9; 6HIS-Fc-sdAb; not shown: CH2 and CH3 domains of a human IgG1
On to B7, for which the Kd in assay [3] came out at 3 nM.

B8: VH A10 (VHH)
VHH: EVQLVESGGGLVQPGGSLRLSCAASGLTYSDYAMSWVRQAAGKGPEWVASISSRGITTDYAHSVKGRFTVSRDNTKNTLYLQMNSLEPEDTAVYYCTTVSYWRYEYWGQGTQVTVSS
modifications: labeled with the acceptor fluorescent probe d2 (site not stated)
notes: as for B1
Regarding B8, the results for the Kd in assay [1] and in assay [2] were 15 nM and 1 nM, respectively.

B9: VH G7 (VHH)
VHH: QVQLQESGGGLVQPGGSLRLSCAASGFTFSWYGMSWVRQAPGKGPEWVASISSRGITTDYAHSVKGRFTVSRDNTKNTLYLQMNSLKPEDTGVYYCTRVLWYDSGAYSLNDFWGQGTQVTVSS
modifications: labeled with the acceptor fluorescent probe d2 (site not stated)
notes: as for B1
On to B9, for which the Kd in assay [1] was 31 nM; in assay [2] it was 5 nM.

B10: HcAb-G7 (Fc fusion)
heavy (part 1 of 2): QVQLQESGGGLVQPGGSLRLSCAASGFTFSWYGMSWVRQAPGKGPEWVASISSRGITTDYAHSVKGRFTVSRDNTKNTLYLQMNSLKPEDTGVYYCTRVLWYDSGAYSLNDFWGQGTQVTVSSAAAEQKLISEEDLNGAAHHHHHHGS
heavy (part 2 of 2): HHHHHH
notes: VH-type heavy-chain antibody: VH fused to CH2 and CH3 of human IgG1, then a 6-histidine tag; made in HEK293; Detected in the assay through an anti-6HIS antibody labeled with d2; also called VH-HcAb G7; 6HIS-Fc-sdAb; not shown: CH2 and CH3 domains of a human IgG1
As for B10, the dissociation constant (Kd) in assay [6] was found to be 5 nM.

B11: VH F2 (VHH)
VHH: EVQLVESGGGLVQPGGSLRLSCAASGFTFSSYAMSWVRQAAGKGPEWVASISSRGITTDYAHSVKGRFTVSRDNTKNTLYLQMNSLKPEDTALYYCVKGWMPTGWGQGTQVTVSS
modifications: labeled with the acceptor fluorescent probe d2 (site not stated)
notes: as for B1
With B11, the Kd in assay [1] came out at 14 nM; in assay [2], 1 nM.
